The data set deals with the molecule itself. Description: cryo-EM structure; single-particle cryoEM of the purified Salmonella MS-FliG ring complex in 25 mM Tris-HCl pH 8.0, 50 mM NaCl, 1 mM EDTA, 0.1% DDM; 8.6 Å (C1) and 6.1 Å (C11) reconstructions.

B1: Salmonella FliF (MS-ring of the purified MS-FliG ring complex) (natural protein, UniProt P15928 1-560, looked up)
chain: MSATASTATQPKPLEWLNRLRANPRIPLIVAGSAAVAIVVAMVLWAKTPDYRTLFSNLSDQDGGAIVAQLTQMNIPYRFANGSGAIEVPADKVHELRLRLAQQGLPKGGAVGFELLDQEKFGISQFSEQVNYQRALEGELARTIETLGPVKSARVHLAMPKPSLFVREQKSPSASVTVTLEPGRALDEGQISAVVHLVSSAVAGLPPGNVTLVDQSGHLLTQSNTSGRDLNDAQLKFANDVESRIQRRIEAILSPIVGNGNVHAQVTAQLDFANKEQTEEHYSPNGDASKATLRSRQLNISEQVGAGYPGGVPGALSNQPAPPNEAPIATPPTNQQNAQNTPQTSTSTNSNSAGPRSTQRNETSNYEVDRTIRHTKMNVGDIERLSVAVVVNYKTLADGKPLPLTADQMKQIEDLTREAMGFSDKRGDTLNVVNSPFSAVDNTGGELPFWQQQSFIDQLLAAGRWLLVLVVAWILWRKAVRPQLTRRVEEAKAAQEQAQVRQETEEAVEVRLSKDEQLQQRRANQRLGAEVMSQRIREMSDNDPRVVALVIRQWMSNDHE
notes: FliF, flagellar M-ring protein, Salmonella; 60-kDa protein with two transmembrane helices and a large periplasmic region; also called St-FliF; copies: 34
For B1, the stoichiometry N (commonly the number of molecules, sites or subunits per partner or assembly) amounted to 34.

The values are drawn from PMC8092281, “Two Distinct Conformations in 34 FliF Subunits Generate Three Different Symmetries within the Flagellar MS-Ring” (mBio, 2021).
